Laboratory results taken from patent publication US20260167959A1, “APTAZYME-BASED REGULATABLE GENE EXPRESSION SYSTEMS” (REJUVENATE BIO INC, priority 2022, published 2026).

B1: RA473 (nucleic acid)
DNA: GCGCGTCCTGGATTCGCGGAAACGCGTACATCCAGCTGACGAGTCCCAAATAGTGATACCAGCATCGTCTTGATGCCCTTGGCAGCACTAGGACGAAACGCGC
modifications: expressed or natural sequence
B2: RA465 (nucleic acid)
DNA: GCGCGTCCTGGATTCGCGGAAACGCGTACATCCAGCTGACCGAGAATACCAGCATCGTCTTGATGCCCTTGGAAGTCTCGGAGTCCCAAATAGGACGAAACGCGC
modifications: expressed or natural sequence
B3: RA475 (nucleic acid)
DNA: GCGCGTCCTGGATTCGCGGAAACGCGTACATCCAGCTGACGAGTCCCAAATAGGACGAAACGCGAGAATACCAGCATCGTCTTGATGCCCTTGGAAGTCTCGC
modifications: chemistry not given here
B4: RA476 (nucleic acid)
DNA: GCGCGTCCTGGATTCGCGGAAACGCGTACATCCAGCTGACGAGTCCCAAATAGGACGAAAAGAATACCAGCATCGTCTTGATGCCCTTGGAAGTCTCGCGC
modifications: expressed or natural sequence
B5: RA466 (nucleic acid)
DNA: GCGCGTCCTGGATTCGCGGAACGGAATACCAGCATCGTCTTGATGCCCTTGGAAGTCCGACGCGTACATCCAGCTGACGAGTCCCAAATAGGACGAAACGCGC
modifications: expressed or natural sequence
B6: RA471 (nucleic acid)
DNA: GCGCGTCCTGGATTCGCGGAAACGCGTACATCCAGCTGACGAGTCCCAAATAGGACCGAGAATACCAGCATCGTCTTGATGCCCTTGGAAGTCTCGGAAACGCGC
modifications: expressed or natural sequence
B7: RA470 (nucleic acid)
DNA: GCGCGTCCTGGATTCGCGGAAACCGAGAATACCAGCATCGTCTTGATGCCCTTGGAAGTCTCGGCGTACATCCAGCTGACGAGTCCCAAATAGGACGAAACGCGC
modifications: expressed or natural sequence
B8: RA472 (nucleic acid)
DNA: GCGCGTCCTGGATTCGCGGAAACGCGTACATCCAGCTGACGAGTCCCAAATAGAGAATACCAGCATCGTCTTGATGCCCTTGGAAGTCTCGGACGAAACGCGC
modifications: expressed or natural sequence
B9: RA474 (nucleic acid)
DNA: GCGCGTCCTGGATTCGCGGAAACGCGTACATCCAGCTGACGAGTCCCAAATAGGACGAAACGCGCGGAATACCAGCATCGTCTTGATGCCCTTGGAAGTCCGC
modifications: expressed or natural sequence
B10: RA467 (nucleic acid)
DNA: GCGCGTCCTGGATTCGCGGAAACGAGAATACCAGCATCGTCTTGATGCCCTTGGAAGTCTCGTACATCCAGCTGACGAGTCCCAAATAGGACGAAACGCGC
modifications: expressed or natural sequence
B11: RA469 (nucleic acid)
DNA: GCGAGAATACCAGCATCGTCTTGATGCCCTTGGAAGTCTCGCGCGTCCTGGATTCGCGGAAACGCGTACATCCAGCTGACGAGTCCCAAATAGGACGAAACGCGC
modifications: expressed or natural sequence
B12: RA468 (nucleic acid)
DNA: GCGCGTCCTGGATTCGCGGAAACGCGTACATCCAGCCGAGAATACCAGCATCGTCTTGATGCCCTTGGAAGTCTCGTGACGAGTCCCAAATAGGACGAAACGCGC
modifications: expressed or natural sequence; listed as DNA, chemistry not fully specified
B13: RA464 (nucleic acid)
DNA: GCGCGTCCTGGAGTGATACCAGCATCGTCTTGATGCCCTTGGCAGCACTATTCGCGGAAACGCGTACATCCAGCTGACGAGTCCCAAATAGGACGAAACGCGC
modifications: expressed or natural sequence
B14: RA004: exemplary aptazyme of the T3H48 aptazyme variant library (nucleic acid)
DNA: GCGCGTCCTGGATTCGCGGAAACGCGTACATCCAGCTGACGAGTCCCAAATAGGCCGGAATACCAGCATCGTCTTGATGCCCTTGGAAGTCCGGACGAAACGCGC
modifications: expressed or natural sequence
notes: exemplary aptazyme of the T3H48 aptazyme variant library
B15: RA048 (nucleic acid)
DNA: GCGCGTCCTGGATTCGCGGAAACGCGTACATCCAGCTGACGCGAGAATACCAGCATCGTCTTGATGCCCTTGGAAGTCTCGAGTCCCAAATAGGACGAAACGCGC
modifications: expressed or natural sequence
B16: RA052 (nucleic acid)
DNA: GCGCGTCCTGGATTCGCGGAAACGCGTACATCCAGCTGACGAGAGTGATACCAGCATCGTCTTGATGCCCTTGGCAGCACTTCCCAAATAGGACGAAACGCGC
modifications: expressed or natural sequence
B17: RA046 (nucleic acid)
DNA: GCGCGTCCTGGATTCGCGGAAACGCGTACATCCAGCTGACGAGTCCGGAATACCAGCATCGTCTTGATGCCCTTGGAAGTCCGCCAAATAGGACGAAACGCGC
modifications: expressed or natural sequence
B18: RA049 (nucleic acid)
DNA: GCGCGTCCTGGATTCGCGGAAACGCGTACATAGAATACCAGCATCGTCTTGATGCCCTTGGAAGTCTCCAGCTGACGAGTCCCAAATAGGACGAAACGCGC
modifications: expressed or natural sequence
B19: RA050 (nucleic acid)
DNA: GCGCGTCCTGGATTCGCGGAAACGCGTACATCCAGCTGACGAGAATACCAGCATCGTCTTGATGCCCTTGGAAGTCTCGCGAGTCCCAAATAGGACGAAACGCGC
modifications: expressed or natural sequence
B20: RA051 (nucleic acid)
DNA: GCGCGTCCTGGATTCGCGGAAACGCGTACATCCAGCTGACGAGTCCCAAATAGGACGAAACCGAGAATACCAGCATCGTCTTGATGCCCTTGGAAGTCTCGGCGC
modifications: expressed or natural sequence
B21: RA047 (nucleic acid)
DNA: GCGCGTCCTGGATTCGCGGAAACGCGTACATCCAGCTGACGAGTCCCAGGAATACCAGCATCGTCTTGATGCCCTTGGAAGTCCAATAGGACGAAACGCGC
modifications: expressed or natural sequence

The molecules below were run on Renilla luciferase RNA (assay: Barcoded aptazyme variant library screen: un-cleaved Renilla luciferase RNA by barcode read counts, HEK293-T cells). Settings: un-cleaved Renilla luciferase RNA by barcode read counts; with 1 mM theophylline (ON) over without theophylline (OFF); HEK293-T cells; triplicate.
Assay type: cell-based
How it was run: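 Barcode sequencing of cDNA versus DNA, normalized per aptazyme, gave the un-cleaved Renilla luciferase RNA fraction and fold-change with versus without theophylline (triplicates). Library: T3H48 ribozyme with one of seven theophylline aptamer variants inserted at each position, placed in the Renilla 3′ UTR of a dual-luciferase vector.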

Row | Molecule | Fold change in RNA expression between the ON state and the OFF state
1 | B1 | 0.3
2 | B2 | 0.4
3 | B3 | 0.3
4 | B4 | 0.2
5 | B5 | 0.4
6 | B6 | 0.4
7 | B7 | 0.4
8 | B8 | 0.3
9 | B9 | 0.3
10 | B10 | 0.4
11 | B11 | 0.4
12 | B12 | 0.4
13 | B13 | 0.4

Same assay, conditions: un-cleaved Renilla luciferase RNA, HEK293-T cells cultured with 1 mM theophylline (ON) over without theophylline (OFF); barcode read counts, triplicate

Row | Molecule | Fold change in RNA expression between the ON state and the OFF state [fold]
14 | B14 | 5.3
15 | B15 | 2.0
16 | B16 | 2.0
17 | B17 | 2.0
18 | B18 | 2.0
19 | B19 | 2.0
20 | B20 | 2.0
21 | B21 | 2.0
